Experimental data as given in paper doi:10.64898/2025.12.16.694593 (bioRxiv, 2025).

Key:
[1] = molecular target: His-SNAP-Mtb Ku (Mycobacterium tuberculosis) (UniProt P9WKD9); assay: SEC
Mtb LigD WT = Mtb LigD WT (Mycobacterium tuberculosis, UniProt P9WNV3 1-759); assay: […]
Sequence of Mtb LigD WT (P9WNV3 whole entry): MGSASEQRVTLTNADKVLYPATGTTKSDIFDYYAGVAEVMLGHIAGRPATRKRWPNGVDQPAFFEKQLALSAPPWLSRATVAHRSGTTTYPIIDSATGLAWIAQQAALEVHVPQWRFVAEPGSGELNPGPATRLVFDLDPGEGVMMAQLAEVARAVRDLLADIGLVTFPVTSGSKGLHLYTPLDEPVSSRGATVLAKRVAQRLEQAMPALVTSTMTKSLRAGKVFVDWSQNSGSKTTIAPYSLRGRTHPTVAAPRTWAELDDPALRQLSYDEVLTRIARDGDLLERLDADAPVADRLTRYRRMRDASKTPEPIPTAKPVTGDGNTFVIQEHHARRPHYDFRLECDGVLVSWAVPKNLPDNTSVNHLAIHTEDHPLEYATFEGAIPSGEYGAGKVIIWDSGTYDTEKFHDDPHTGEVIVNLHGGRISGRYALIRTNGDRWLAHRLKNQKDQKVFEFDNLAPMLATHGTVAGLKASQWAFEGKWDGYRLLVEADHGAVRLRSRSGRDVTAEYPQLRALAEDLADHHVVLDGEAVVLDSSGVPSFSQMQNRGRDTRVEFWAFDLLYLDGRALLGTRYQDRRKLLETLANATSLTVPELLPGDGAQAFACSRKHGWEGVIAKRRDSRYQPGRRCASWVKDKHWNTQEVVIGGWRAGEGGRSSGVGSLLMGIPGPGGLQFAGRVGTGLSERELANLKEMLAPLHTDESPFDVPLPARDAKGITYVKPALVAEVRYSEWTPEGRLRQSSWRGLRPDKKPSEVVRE

Molecule | stoichiometry N [1] | binding result (Mtb LigD WT)
His-SNAP-Mtb Ku (from UniProt P9WKD9 1-273) (natural protein) | 2 | 
His-SNAP-Mtb Ku (natural protein) MRAIWTGSIAFGLVNVPVKVYSATADHDIRFHQVHAKDNGRIRYKRVCEACGEVVDYRDLARAYESGDGQMVAITDDDIASLPEERSREIEVLEFVPAADVDPMMFDRSYFLEPDSKSSKSYVLLAKTLAETDRMAIVHFTLRNKTRLAALRVKDFGKREVMMVHTLLWPDEIRDPDFPVLDQKVEIKPAELKMAGQVVDSMADDFNPDRYHDTYQEQLQELIDTKLEGGQAFTAEDQPRLLDEPEDVSDLLAKLEASVKARSKANSNVPTPP |  | binds
